Measurements reported in paper PMC4709261, “Guanylate cyclase 1 relies on rhodopsin for intracellular stability and ciliary trafficking” (eLife, 2015).

Biological target: T1, retinal guanylate cyclase 1 (mouse (endogenous in retina), UniProt P52785 55-1108)
T1 construct: retinal guanylate cyclase 1 (GC-1), mouse, endogenous in the retina; Endogenous protein precipitated by the anti-GC-1 antibody 1S4 and detected by Western blotting; also called GC-1; RetGC1
T1 sequence (looked up): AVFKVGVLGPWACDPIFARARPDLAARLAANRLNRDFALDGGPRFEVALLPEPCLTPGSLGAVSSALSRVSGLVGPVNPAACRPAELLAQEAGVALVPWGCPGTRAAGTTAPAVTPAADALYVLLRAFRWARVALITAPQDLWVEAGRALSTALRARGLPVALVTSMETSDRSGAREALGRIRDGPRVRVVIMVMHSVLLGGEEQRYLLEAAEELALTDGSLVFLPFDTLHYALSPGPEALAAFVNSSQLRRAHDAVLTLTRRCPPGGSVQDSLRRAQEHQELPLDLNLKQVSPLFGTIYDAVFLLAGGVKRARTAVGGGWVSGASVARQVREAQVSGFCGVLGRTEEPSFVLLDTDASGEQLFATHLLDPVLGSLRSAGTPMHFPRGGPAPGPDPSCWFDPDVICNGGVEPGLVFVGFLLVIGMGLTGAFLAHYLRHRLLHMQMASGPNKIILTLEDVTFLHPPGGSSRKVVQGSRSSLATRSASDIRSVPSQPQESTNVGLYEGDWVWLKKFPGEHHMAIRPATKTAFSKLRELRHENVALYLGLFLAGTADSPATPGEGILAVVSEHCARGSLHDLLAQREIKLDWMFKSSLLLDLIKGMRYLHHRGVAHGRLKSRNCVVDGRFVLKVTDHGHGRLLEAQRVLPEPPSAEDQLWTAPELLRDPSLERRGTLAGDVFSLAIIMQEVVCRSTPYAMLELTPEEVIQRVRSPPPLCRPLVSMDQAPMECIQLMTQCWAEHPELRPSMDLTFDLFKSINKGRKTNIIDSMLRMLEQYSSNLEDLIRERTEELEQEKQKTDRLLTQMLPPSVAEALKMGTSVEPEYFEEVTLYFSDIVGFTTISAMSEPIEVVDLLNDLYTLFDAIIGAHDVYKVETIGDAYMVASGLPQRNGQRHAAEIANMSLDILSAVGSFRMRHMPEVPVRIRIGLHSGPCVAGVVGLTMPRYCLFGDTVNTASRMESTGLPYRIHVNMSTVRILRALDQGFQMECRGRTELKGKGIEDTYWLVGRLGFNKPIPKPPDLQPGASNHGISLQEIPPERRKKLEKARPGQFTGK
Experiment: co-IP; Rho+/- mouse retinal lysate; anti-GC-1 antibody 1S4 (0.2 μg), minimal amount (5 μl) of protein A/G magnetic beads; eluate analysed by Western blotting for GC-1 and rhodopsin; control: non-immune mouse IgG
Conditions: partners not purified

- fold of rhodopsin precipitation with anti-GC-1 antibody over non-specific background with non-immune IgG: 6.5 fold
B1: rhodopsin (receptor, mouse (endogenous in retina), UniProt P15409 1-348, looked up)
chain: MNGTEGPNFYVPFSNVTGVVRSPFEQPQYYLAEPWQFSMLAAYMFLLIVLGFPINFLTLYVTVQHKKLRTPLNYILLNLAVADLFMVFGGFTTTLYTSLHGYFVFGPTGCNLEGFFATLGGEIALWSLVVLAIERYVVVCKPMSNFRFGENHAIMGVVFTWIMALACAAPPLVGWSRYIPEGMQCSCGIDYYTLKPEVNNESFVIYMFVVHFTIPMIVIFFCYGQLVFTVKEAAAQQQESATTQKAEKEVTRMVIIMVIFFLICWLPYASVAFYIFTHQGSNFGPIFMTLPAFFAKSSSIYNPVIYIMLNKQFRNCMLTTLCCGKNPLGDDDASATASKTETSQVAPA
notes: rhodopsin, mouse, endogenous in the retina; Endogenous protein precipitated by, or detected with, the anti-rhodopsin antibody 1D4
